According to patent EP1496124A1 (Oklahoma Medical Research Foundation, dated 2005):
Blank lines part the entries; values can stand above or below the molecule they belong to. Ends that are not written are not given here.

Assays:
recombinant memapsin 2 [1] = target: T1, recombinant memapsin 2 (human, UniProt P56817 14-454, limits assumed); experiment: enzyme inhibition with a synthetic fluorogenic peptide substrate
T1 construct: also called M2; beta-secretase

[2] = target: M2pd (modified M2 containing amino acids from Ala-8P to Ala326) (human) (UniProt P56817); experiment: cell-based or functional assay
recombinant memapsin 2 [3] = target: T1, recombinant memapsin 2; experiment: comparison of inhibition constants
recombinant memapsin 2 [4] = target: T1, recombinant memapsin 2; experiment: Ki as stated in the crystallisation example; assay not described there

T1 sequence (P56817 14-454 limits assumed): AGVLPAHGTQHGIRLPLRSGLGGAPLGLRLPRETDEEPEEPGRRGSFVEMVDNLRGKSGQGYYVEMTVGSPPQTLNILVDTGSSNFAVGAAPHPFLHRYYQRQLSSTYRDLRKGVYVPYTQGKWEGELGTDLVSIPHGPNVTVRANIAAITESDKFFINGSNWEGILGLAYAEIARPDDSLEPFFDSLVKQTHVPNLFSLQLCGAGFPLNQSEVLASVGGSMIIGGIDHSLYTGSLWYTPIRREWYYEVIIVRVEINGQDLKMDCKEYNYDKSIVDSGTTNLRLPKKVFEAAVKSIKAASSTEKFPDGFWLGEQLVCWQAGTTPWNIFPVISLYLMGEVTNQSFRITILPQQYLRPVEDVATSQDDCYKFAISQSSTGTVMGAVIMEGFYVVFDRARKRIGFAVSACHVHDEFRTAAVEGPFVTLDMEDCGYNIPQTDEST
Sequence of M2pd (modified M2 containing amino acids from Ala-8P to Ala326) (human) (P56817 22-501 limits assumed): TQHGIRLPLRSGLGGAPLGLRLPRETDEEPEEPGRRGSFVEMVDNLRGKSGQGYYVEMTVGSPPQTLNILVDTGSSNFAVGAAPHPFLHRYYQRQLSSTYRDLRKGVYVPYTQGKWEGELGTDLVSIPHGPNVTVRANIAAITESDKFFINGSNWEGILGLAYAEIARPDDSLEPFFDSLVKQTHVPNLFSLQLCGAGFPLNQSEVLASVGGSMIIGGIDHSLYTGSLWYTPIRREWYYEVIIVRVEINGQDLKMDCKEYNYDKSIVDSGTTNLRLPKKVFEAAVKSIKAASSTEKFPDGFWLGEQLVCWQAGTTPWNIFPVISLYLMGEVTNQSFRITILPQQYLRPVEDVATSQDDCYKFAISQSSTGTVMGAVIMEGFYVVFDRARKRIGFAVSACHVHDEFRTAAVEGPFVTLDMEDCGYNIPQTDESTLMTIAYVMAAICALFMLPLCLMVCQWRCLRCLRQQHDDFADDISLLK

Molecule: VNLAAEF (also: Leu3-Ala4 bond replaced by hydroxyethylene isostere -CH(OH)-CH2-) [OM99-2 with P4 Glu absent]
- fold increase in Ki against OM99-2 (recombinant memapsin 2 [3]): 10 fold

B1: OM99-2 (peptide)
peptide: EVNLAAEF
modifications: also: Leu4-Ala5 peptide bond replaced by hydroxyethylene isostere -CH(OH)-CH2-
notes: Synthetic substrate analogue based on the beta-secretase site of Swedish mutant APP
- Ki (recombinant memapsin 2 [4]): 10 nM

Now from value to molecule:

- Ki (recombinant memapsin 2 [1]): 30 nM
Molecule: OM99-1 (peptide)

- IC50 (inhibition of enzyme activity) [2]: 300000 nM
Molecule: Pepstatin A (peptide)
